Measured values taken from paper doi:10.1101/2021.10.18.464377.

Experiments:
[1] = molecular target: Synaptotagmin 1 wild type expressed in HEK 293 cells (UniProt P21707); assay: immunostaining of cells or tissue
[2] = molecular target: Synaptotagmin 2 wild type expressed in HEK 293 or PC12 cells (UniProt P29101); assay: immunostaining of cells or tissue
UniProt P29101, sequence (P29101 whole entry): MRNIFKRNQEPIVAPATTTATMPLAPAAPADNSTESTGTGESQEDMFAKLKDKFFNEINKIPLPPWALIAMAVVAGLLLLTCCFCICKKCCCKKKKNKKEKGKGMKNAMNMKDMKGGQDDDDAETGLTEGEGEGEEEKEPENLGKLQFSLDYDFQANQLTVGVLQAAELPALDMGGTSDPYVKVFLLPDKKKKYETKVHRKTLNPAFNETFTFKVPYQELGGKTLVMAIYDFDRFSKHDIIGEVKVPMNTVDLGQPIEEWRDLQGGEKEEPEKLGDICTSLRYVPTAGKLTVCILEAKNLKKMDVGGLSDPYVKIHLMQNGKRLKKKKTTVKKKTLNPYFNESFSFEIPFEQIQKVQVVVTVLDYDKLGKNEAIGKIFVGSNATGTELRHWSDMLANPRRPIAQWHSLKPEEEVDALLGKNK

UniProt P21707, sequence (P21707 whole entry): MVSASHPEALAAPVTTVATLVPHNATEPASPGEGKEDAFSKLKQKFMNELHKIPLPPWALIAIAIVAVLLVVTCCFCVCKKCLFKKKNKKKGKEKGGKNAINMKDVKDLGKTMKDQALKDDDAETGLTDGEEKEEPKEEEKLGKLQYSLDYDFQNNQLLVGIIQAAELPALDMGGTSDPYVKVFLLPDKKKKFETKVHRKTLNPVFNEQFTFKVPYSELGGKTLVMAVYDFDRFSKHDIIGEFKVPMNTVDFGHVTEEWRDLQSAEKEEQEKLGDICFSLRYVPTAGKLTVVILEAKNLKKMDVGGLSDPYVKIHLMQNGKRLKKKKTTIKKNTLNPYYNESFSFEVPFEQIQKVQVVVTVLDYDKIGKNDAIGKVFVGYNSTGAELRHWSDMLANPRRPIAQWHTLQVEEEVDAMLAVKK

In the case of “Botulinum neurotoxin serotype B (B1 Okra strain) with non-toxic accessory proteins (complex)”, the normalised BoNT/B immunoreactivity (IR, relative to WT) [1] is reported as 1 and the normalised BoNT/B immunoreactivity (IR, relative to WT) [2] is reported as 1.
